# Measurements from publication PMC6555819, “Comprehensive study of nuclear receptor DNA binding provides a revised framework for understanding receptor specificity”.
# Changes are numbered by the printed parent chain.
# B1: NRC3_wobSeed27_DR1_G22C_o1 (dsDNA)
# DNA 1: GCACTCGGAGGACAAAGGTCACAGCTACGCCAGTGAGCGATTGACAGCGTAGAATGAAGG
# DNA 2: CCTTCATTCTACGCTGTCAATCGCTCACTGGCGTAGCTGTGACCTTTGTCCTCCGAGTGC
# B2: NRC3_random_hg19_114_o1 (dsDNA)
# DNA 1: GCCAAGGCAGCCAGAACTGATGATTGCACTGTGTGGGCGATTGACAGCGTAGAATGAAGG
# DNA 2: CCTTCATTCTACGCTGTCAATCGCCCACACAGTGCAATCATCAGTTCTGGCTGCCTTGGC
# B3: NRC3_random_hg19_443_o1 (dsDNA)
# DNA 1: GCTAGTACTTGGTCCATAGCACTACTACTCACTTTGGCGATTGACAGCGTAGAATGAAGG
# DNA 2: CCTTCATTCTACGCTGTCAATCGCCAAAGTGAGTAGTAGTGCTATGGACCAAGTACTAGC
# B4: NRC3_random_hg19_63_o1 (dsDNA)
# DNA 1: GCTTTCAAGGCAGTAAGAGTTTGCTGTGCATCAGCTGCGATTGACAGCGTAGAATGAAGG
# DNA 2: CCTTCATTCTACGCTGTCAATCGCAGCTGATGCACAGCAAACTCTTACTGCCTTGAAAGC
# B5: NRC3_wobSeed97_DR4_T8C_o1 (dsDNA)
# DNA 1: GCCAAACCAGGTCACGAAAGGTCAAAGTCGAATGACGCGATTGACAGCGTAGAATGAAGG
# DNA 2: CCTTCATTCTACGCTGTCAATCGCGTCATTCGACTTTGACCTTTCGTGACCTGGTTTGGC
# B6: NRC3_random_hg19_226_o1 (dsDNA)
# DNA 1: GCCATCCCATTTCTCTTCCCAAGGGATTTGAAAGAGGCGATTGACAGCGTAGAATGAAGG
# DNA 2: CCTTCATTCTACGCTGTCAATCGCCTCTTTCAAATCCCTTGGGAAGAGAAATGGGATGGC
# B7: NRC3_random_hg19_95_o1 (dsDNA)
# DNA 1: GCATCTTCAGTATGTTTCATTCAGTAGCTCAGTGGCGCGATTGACAGCGTAGAATGAAGG
# DNA 2: CCTTCATTCTACGCTGTCAATCGCGCCACTGAGCTACTGAATGAAACATACTGAAGATGC
# B8: NRC3_wobSeed109_DR4_T15C_o1 (dsDNA)
# DNA 1: GCCGTCCAAGGTCACAGGAGGTCAGTGAAGACAGATGCGATTGACAGCGTAGAATGAAGG
# DNA 2: CCTTCATTCTACGCTGTCAATCGCATCTGTCTTCACTGACCTCCTGTGACCTTGGACGGC
# B9: NRC3_wobSeed13_DR0_A8G_o1 (dsDNA)
# DNA 1: GCCGTCCGAGGTCAAGGTCAGTGAAAGAGACTCGAAGCGATTGACAGCGTAGAATGAAGG
# DNA 2: CCTTCATTCTACGCTGTCAATCGCTTCGAGTCTCTTTCACTGACCTTGACCTCGGACGGC
# B10: NRC3_random_hg19_45_o1 (dsDNA)
# DNA 1: GCAAACACAAAGTTTGGGCTGCCTTCTCTAGAGATTGCGATTGACAGCGTAGAATGAAGG
# DNA 2: CCTTCATTCTACGCTGTCAATCGCAATCTCTAGAGAAGGCAGCCCAAACTTTGTGTTTGC
# B11: NRC3_random_hg19_248_o1 (dsDNA)
# DNA 1: GCGTGTTCTACTGTACTGCAGCTGAGCCGACACTCAGCGATTGACAGCGTAGAATGAAGG
# DNA 2: CCTTCATTCTACGCTGTCAATCGCTGAGTGTCGGCTCAGCTGCAGTACAGTAGAACACGC
# B12: NRC3_random_hg19_375_o1 (dsDNA)
# DNA 1: GCCAGAAGAGGAGAAGACACATAAGAAGAGGAAGTCGCGATTGACAGCGTAGAATGAAGG
# DNA 2: CCTTCATTCTACGCTGTCAATCGCGACTTCCTCTTCTTATGTGTCTTCTCCTCTTCTGGC
# B13: NRC3_wobSeed63_DR2_T8G_o1 (dsDNA)
# DNA 1: GCCGAACGAGGTCACCAGGACAGTGAAGAGGTTGGAGCGATTGACAGCGTAGAATGAAGG
# DNA 2: CCTTCATTCTACGCTGTCAATCGCTCCAACCTCTTCACTGTCCTGGTGACCTCGTTCGGC
# B14: NRC3_wobSeed53_DR2_C8A_o1 (dsDNA)
# DNA 1: GCCCTTAAGGGTCACGAGGTTATAGCACGACGAGCGGCGATTGACAGCGTAGAATGAAGG
# DNA 2: CCTTCATTCTACGCTGTCAATCGCCGCTCGTCGTGCTATAACCTCGTGACCCTTAAGGGC
# B15: NRC3_wobSeed113_DR4_A14C_o1 (dsDNA)
# DNA 1: GCATATGTAGGTTCGCTGGGGTCATTCAGACTAGGCGCGATTGACAGCGTAGAATGAAGG
# DNA 2: CCTTCATTCTACGCTGTCAATCGCGCCTAGTCTGAATGACCCCAGCGAACCTACATATGC
# B16: NRC3_wobSeed76_DR3_C12T_o1 (dsDNA)
# DNA 1: GCCCTACTGGGTCAAAAAGGTCATTGATGCCGATAAGCGATTGACAGCGTAGAATGAAGG
# DNA 2: CCTTCATTCTACGCTGTCAATCGCTTATCGGCATCAATGACCTTTTTGACCCAGTAGGGC
# B17: NRC3_wobSeed82_DR3_G22C_o1 (dsDNA)
# DNA 1: GCATCGAAAGGTCGACGAGGTCAGTATACACCGTTTGCGATTGACAGCGTAGAATGAAGG
# DNA 2: CCTTCATTCTACGCTGTCAATCGCAAACGGTGTATACTGACCTCGTCGACCTTTCGATGC
# B18: NRC3_wobSeed77_DR3_G20T_o1 (dsDNA)
# DNA 1: GCACTTACGGGTCAACGAGTTTATAGCACGCGTATAGCGATTGACAGCGTAGAATGAAGG
# DNA 2: CCTTCATTCTACGCTGTCAATCGCTATACGCGTGCTATAAACTCGTTGACCCGTAAGTGC
# B19: NRC3_wobSeed73_DR3_G20T_o1 (dsDNA)
# DNA 1: GCCAAACTAGGTCACAGAGTTCAAAGTCCGTGCGTAGCGATTGACAGCGTAGAATGAAGG
# DNA 2: CCTTCATTCTACGCTGTCAATCGCTACGCACGGACTTTGAACTCTGTGACCTAGTTTGGC
# B20: NRC3_wobSeed94_DR3_G23A_o1 (dsDNA)
# DNA 1: GCCTACCAAGGTGAACAAGGTCATTGATTACTATTCGCGATTGACAGCGTAGAATGAAGG
# DNA 2: CCTTCATTCTACGCTGTCAATCGCGAATAGTAATCAATGACCTTGTTCACCTTGGTAGGC
# B21: NRC3_wobSeed94_DR3_G13T_o1 (dsDNA)
# DNA 1: B20 DNA 1 with G13T, A23G
# DNA 2: B20 DNA 2 with T38C, C48A
# B22: NRC3_wobSeed81_DR3_A13C_o1 (dsDNA)
# DNA 1: GCATCTCTAGGTCACCAAGTTCAGTGAATGCCGAACGCGATTGACAGCGTAGAATGAAGG
# DNA 2: CCTTCATTCTACGCTGTCAATCGCGTTCGGCATTCACTGAACTTGGTGACCTAGAGATGC
# B23: NRC3_wobSeed74_DR3_T9G_o1 (dsDNA)
# DNA 1: GCTCTAGTGGGTCACGGAGGTCACACACGACGGGTAGCGATTGACAGCGTAGAATGAAGG
# DNA 2: CCTTCATTCTACGCTGTCAATCGCTACCCGTCGTGTGTGACCTCCGTGACCCACTAGAGC
# B24: NRC3_wobSeed65_DR2_C25G_o1 (dsDNA)
# DNA 1: GCATATGTAGGTTATCGGGTCATTGAGTTTGCGCATGCGATTGACAGCGTAGAATGAAGG
# DNA 2: CCTTCATTCTACGCTGTCAATCGCATGCGCAAACTCAATGACCCGATAACCTACATATGC
# B25: NRC3_wobSeed28_DR1_T26G_o1 (dsDNA)
# DNA 1: GCCCTACTGGGCCAAAGGTCATTGAGTCCAATGCTCGCGATTGACAGCGTAGAATGAAGG
# DNA 2: CCTTCATTCTACGCTGTCAATCGCGAGCATTGGACTCAATGACCTTTGGCCCAGTAGGGC
# B26: NRC3_wobSeed95_DR3_G12T_o1 (dsDNA)
# DNA 1: GCAGAACGAGGTCAATGAGTTGATAGCACGGGTGGCGCGATTGACAGCGTAGAATGAAGG
# DNA 2: CCTTCATTCTACGCTGTCAATCGCGCCACCCGTGCTATCAACTCATTGACCTCGTTCTGC
# Molecular target: RXRa (Homo sapiens, UniProt P19793)
# Test: no ligand; PBM; 180 nM; PBS pH 7.4, 2% milk, 0.02% Triton X-100, 1 mM DTT, BSA, 0.4 mg/ml salmon testes DNA
# Conditions: tags: His cleaved; chain copies: 2; label: surface-attached array probe
# Chain of RXRa (P19793 whole entry): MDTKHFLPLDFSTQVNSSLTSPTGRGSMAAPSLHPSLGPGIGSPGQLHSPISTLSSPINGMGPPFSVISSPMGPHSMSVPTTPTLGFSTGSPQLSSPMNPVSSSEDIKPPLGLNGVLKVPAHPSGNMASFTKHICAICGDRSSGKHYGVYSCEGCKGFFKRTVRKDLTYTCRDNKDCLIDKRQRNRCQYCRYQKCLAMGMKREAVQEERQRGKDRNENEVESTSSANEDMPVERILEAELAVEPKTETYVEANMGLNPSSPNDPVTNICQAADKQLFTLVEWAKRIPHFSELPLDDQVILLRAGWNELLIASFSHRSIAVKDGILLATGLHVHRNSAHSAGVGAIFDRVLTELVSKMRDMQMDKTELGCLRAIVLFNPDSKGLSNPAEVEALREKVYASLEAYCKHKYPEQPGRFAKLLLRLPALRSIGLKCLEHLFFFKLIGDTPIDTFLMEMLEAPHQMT
row,Binder,binding signal
1,B1,8.07 PBM z-score against 500 random probes
2,B2,-0.24 PBM z-score against 500 random probes
3,B3,0.04 PBM z-score against 500 random probes
4,B4,-1.05 PBM z-score against 500 random probes
5,B5,9.26 PBM z-score against 500 random probes
6,B6,-0.08 PBM z-score against 500 random probes
7,B7,-0.26 PBM z-score against 500 random probes
8,B8,7.9 PBM z-score against 500 random probes
9,B9,8 PBM z-score against 500 random probes
10,B10,-0.51 PBM z-score against 500 random probes
11,B11,-0.43 PBM z-score against 500 random probes
12,B12,0.13 PBM z-score against 500 random probes
13,B13,7.78 PBM z-score against 500 random probes
14,B14,8.38 PBM z-score against 500 random probes

# Molecular target: PPARa:RXRa (Homo sapiens, UniProt Q07869;P19793 full;full)
# Test: no ligand; PBM; 270 nM : 90 nM RXRa; PBS pH 7.4, 2% milk, 0.02% Triton X-100, 1 mM DTT, BSA, 0.4 mg/ml salmon testes DNA
# Conditions: tags: GST kept;His cleaved; copies: 1;1; label: surface-attached array probe
# Outline: (§1)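 Ligand-free nuclear receptor dimers were bound for 1 h to custom Agilent 4×180K protein-binding microarrays. Detection used antibodies against each partner (one per run). Binding z-scores rest on regression-normalized fluorescence, with random background probes as the reference.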
# Chain of PPARa:RXRa (Q07869 whole entry, chain 1 of 2): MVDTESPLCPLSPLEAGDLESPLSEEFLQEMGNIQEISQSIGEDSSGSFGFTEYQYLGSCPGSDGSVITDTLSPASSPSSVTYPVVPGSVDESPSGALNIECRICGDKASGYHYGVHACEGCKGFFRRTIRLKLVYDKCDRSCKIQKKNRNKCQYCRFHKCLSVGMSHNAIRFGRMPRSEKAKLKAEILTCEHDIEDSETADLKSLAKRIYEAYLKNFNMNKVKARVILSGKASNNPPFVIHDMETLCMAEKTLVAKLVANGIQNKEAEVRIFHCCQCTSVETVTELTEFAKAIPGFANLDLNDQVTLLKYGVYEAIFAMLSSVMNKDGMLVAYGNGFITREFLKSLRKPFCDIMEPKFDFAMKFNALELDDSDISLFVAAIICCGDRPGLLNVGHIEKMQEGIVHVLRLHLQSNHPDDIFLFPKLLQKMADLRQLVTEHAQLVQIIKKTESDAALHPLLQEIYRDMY
# Chain of PPARa:RXRa (P19793 whole entry, chain 2 of 2): as the sequence (P19793 whole entry) above
row,Binder,binding signal
1,B3,-0.32 PBM z-score against 500 random probes
2,B7,-0.24 PBM z-score against 500 random probes
3,B9,6.49 PBM z-score against 500 random probes
4,B13,6.82 PBM z-score against 500 random probes
5,B14,7.03 PBM z-score against 500 random probes

# Molecular target: FXR:RXRa (Homo sapiens, UniProt Q96RI1;P19793 full;full)
# Test: as above
# Conditions: tags: His kept;His cleaved; copies: 1;1; label: surface-attached array probe
# Outline: as §1
# Chain of FXR:RXRa (Q96RI1 whole entry, chain 1 of 2): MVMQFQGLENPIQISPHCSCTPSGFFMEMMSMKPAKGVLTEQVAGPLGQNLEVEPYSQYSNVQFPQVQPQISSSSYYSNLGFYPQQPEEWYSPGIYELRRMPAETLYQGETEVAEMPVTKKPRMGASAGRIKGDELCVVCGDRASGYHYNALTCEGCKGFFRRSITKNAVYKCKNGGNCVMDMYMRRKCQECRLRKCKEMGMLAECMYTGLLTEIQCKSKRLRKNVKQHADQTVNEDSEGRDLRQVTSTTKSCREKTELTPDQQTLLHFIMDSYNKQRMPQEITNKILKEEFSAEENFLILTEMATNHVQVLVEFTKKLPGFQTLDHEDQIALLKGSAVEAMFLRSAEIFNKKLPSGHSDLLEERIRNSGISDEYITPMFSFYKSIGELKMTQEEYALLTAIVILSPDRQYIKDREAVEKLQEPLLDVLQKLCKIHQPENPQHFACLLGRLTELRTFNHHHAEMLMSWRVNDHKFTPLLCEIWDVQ
# Chain of FXR:RXRa (P19793 whole entry, chain 2 of 2): as the sequence (P19793 whole entry) above
row,Binder,binding signal
1,B9,8.4 PBM z-score against 500 random probes
2,B12,0.5 PBM z-score against 500 random probes
3,B13,7.97 PBM z-score against 500 random probes
4,B14,8.42 PBM z-score against 500 random probes

# Molecular target: VDR:RXRa (Homo sapiens, UniProt P11473;P19793 full;full)
# Test: as above
# Conditions: tags: His kept;His cleaved; copies: 1;1; label: surface-attached array probe
# Outline: as §1
# Chain of VDR:RXRa (P11473 whole entry, chain 1 of 2): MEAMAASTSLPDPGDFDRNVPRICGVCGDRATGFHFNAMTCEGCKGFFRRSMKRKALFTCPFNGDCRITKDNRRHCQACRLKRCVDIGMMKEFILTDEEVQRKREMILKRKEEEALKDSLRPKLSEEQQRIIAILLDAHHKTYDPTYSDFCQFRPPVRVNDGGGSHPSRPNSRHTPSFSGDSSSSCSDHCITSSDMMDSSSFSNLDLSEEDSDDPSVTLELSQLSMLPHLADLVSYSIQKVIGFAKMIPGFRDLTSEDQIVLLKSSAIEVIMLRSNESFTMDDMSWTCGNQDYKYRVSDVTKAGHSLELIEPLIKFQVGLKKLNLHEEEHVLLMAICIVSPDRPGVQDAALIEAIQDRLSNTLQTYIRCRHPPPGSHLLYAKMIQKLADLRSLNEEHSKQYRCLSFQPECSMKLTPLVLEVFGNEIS
# Chain of VDR:RXRa (P19793 whole entry, chain 2 of 2): as the sequence (P19793 whole entry) above
row,Binder,binding signal
1,B15,7.03 PBM z-score against 500 random probes
2,B16,6.93 PBM z-score against 500 random probes
3,B17,7.66 PBM z-score against 500 random probes
4,B18,8.27 PBM z-score against 500 random probes
5,B19,8.45 PBM z-score against 500 random probes
6,B20,7.03 PBM z-score against 500 random probes
7,B21,6.93 PBM z-score against 500 random probes
8,B22,7.59 PBM z-score against 500 random probes
9,B23,7.63 PBM z-score against 500 random probes
10,B24,6.9 PBM z-score against 500 random probes
11,B25,7.34 PBM z-score against 500 random probes
12,B26,7.63 PBM z-score against 500 random probes

# Molecular target: RARb:RXRa (Homo sapiens, UniProt P10826;P19793 full;full)
# Test: as above
# Conditions: tags: His kept;His cleaved; copies: 1;1; label: surface-attached array probe
# Outline: as §1
# Chain of RARb:RXRa (P10826 whole entry, chain 1 of 2): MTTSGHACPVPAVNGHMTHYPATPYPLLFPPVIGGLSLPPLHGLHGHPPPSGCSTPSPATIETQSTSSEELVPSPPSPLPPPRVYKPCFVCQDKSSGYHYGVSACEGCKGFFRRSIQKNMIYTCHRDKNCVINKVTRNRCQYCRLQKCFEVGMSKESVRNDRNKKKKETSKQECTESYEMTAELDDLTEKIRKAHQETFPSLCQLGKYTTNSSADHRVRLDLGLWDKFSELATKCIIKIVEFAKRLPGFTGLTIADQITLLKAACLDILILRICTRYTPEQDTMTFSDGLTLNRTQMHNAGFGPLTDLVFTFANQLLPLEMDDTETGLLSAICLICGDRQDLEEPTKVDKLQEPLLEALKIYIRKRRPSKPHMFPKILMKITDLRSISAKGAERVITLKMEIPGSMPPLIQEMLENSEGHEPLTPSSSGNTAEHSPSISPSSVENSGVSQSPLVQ
# Chain of RARb:RXRa (P19793 whole entry, chain 2 of 2): as the sequence (P19793 whole entry) above
row,Binder,binding signal
1,B2,-1.11 PBM z-score against 500 random probes
2,B3,-0.05 PBM z-score against 500 random probes
3,B4,-0.61 PBM z-score against 500 random probes
4,B8,5.7 PBM z-score against 500 random probes
5,B10,-0.19 PBM z-score against 500 random probes
6,B13,5.63 PBM z-score against 500 random probes
7,B14,6 PBM z-score against 500 random probes

# Molecular target: RARg:RXRa (Homo sapiens, UniProt P13631;P19793 full;full)
# Test: as above
# Conditions: tags: His kept;His cleaved; copies: 1;1; label: surface-attached array probe
# Outline: as §1
# Chain of RARg:RXRa (P13631 whole entry, chain 1 of 2): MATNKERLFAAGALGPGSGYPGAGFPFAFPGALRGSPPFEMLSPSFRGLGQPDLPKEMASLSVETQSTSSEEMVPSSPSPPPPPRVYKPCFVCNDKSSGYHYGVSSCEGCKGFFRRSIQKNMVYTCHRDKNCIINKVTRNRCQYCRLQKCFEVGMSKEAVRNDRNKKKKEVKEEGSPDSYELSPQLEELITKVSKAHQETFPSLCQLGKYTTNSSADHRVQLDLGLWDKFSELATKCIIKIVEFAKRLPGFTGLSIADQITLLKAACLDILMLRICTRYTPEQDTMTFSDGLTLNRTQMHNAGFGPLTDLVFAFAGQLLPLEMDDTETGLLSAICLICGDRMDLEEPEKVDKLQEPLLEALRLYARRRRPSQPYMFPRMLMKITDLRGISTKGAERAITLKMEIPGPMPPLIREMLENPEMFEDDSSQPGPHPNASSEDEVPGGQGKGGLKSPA
# Chain of RARg:RXRa (P19793 whole entry, chain 2 of 2): as the sequence (P19793 whole entry) above
row,Binder,binding signal
1,B1,7.47 PBM z-score against 500 random probes
2,B5,8.22 PBM z-score against 500 random probes
3,B6,-0.16 PBM z-score against 500 random probes
4,B8,7.39 PBM z-score against 500 random probes
5,B9,7.45 PBM z-score against 500 random probes
6,B11,-0.34 PBM z-score against 500 random probes
7,B14,7.41 PBM z-score against 500 random probes
